The results in this text go back to PMC4357726.

The data set deals with T1, TtHisRS (histidyl-tRNA synthetase) (Thermus thermophilus HB27 (ATCC …, UniProt P62374 1-421)).
T1 sequence: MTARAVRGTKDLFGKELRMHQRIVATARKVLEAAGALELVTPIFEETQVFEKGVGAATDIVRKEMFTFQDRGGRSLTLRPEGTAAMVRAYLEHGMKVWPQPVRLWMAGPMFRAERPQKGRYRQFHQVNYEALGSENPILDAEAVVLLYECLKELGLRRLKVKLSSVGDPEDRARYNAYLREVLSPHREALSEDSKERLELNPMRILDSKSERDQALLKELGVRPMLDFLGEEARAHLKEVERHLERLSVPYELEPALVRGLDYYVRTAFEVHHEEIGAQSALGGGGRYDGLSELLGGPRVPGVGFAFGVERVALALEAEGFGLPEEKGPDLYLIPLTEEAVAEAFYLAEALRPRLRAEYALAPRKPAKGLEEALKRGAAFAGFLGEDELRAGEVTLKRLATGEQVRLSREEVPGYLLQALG
The experiment in a line: X-ray crystallography.

B1: tRNAHis(GUG) transcript (TttRNAHis) (structured_RNA)
RNA: GGUGAGCGUAGCUCAGCUGGUAGACCACCGGACUGAGAUCCGGGGGUCGUGGGUUCAAGUCCCAUCGCUCACCCCA
Regarding B1, the binding result is “binds”.
